Measurements taken from the RNAGym collection of RNA variant scans (doi:10.1101/gr.219683.116).

B1: mRNA-splicing (parent)
chain: AGUUGCUGCUGGGAGCUCCAGCACAGUGAAAUGGACAGAAGGGCAGAGCAA

Variants of: B1
Assay: exon inclusion enrichment index; higher = more inclusion; WT1 exon 5 minigene, HEK293

**Q.** Which “exon inclusion enrichment index” value does the source give for G5C C6U G8C C9U U10C G38U here?
**A.** 0.577

**Q.** Which “exon inclusion enrichment index” value does the source give for G5A C6U U7A G8U C9A U17A C18U here?
**A.** 0.0116

**Q.** With C6A U7C C9A U10C C24A A25C as the variant, how does the “exon inclusion enrichment index” value read?
**A.** 4.45

**Q.** With G5A U7C G8C C9U U10C as the variant, how does the “exon inclusion enrichment index” value read?
**A.** 1.27

**Q.** Which “exon inclusion enrichment index” value does the source give for C6A U7A C9A U10A G11A G12C here?
**A.** 2.24

**Q.** Which “exon inclusion enrichment index” value does the source give for G5C C6G U7C U10C G38A A39C here?
**A.** 2.65

**Q.** Which “exon inclusion enrichment index” value does the source give for G5C C6U G8C C9U U10C C36U A37G here?
**A.** 1.74

**Q.** For G5C C6G U7C U10C G11C G12A, which “exon inclusion enrichment index” value is on record?
**A.** 1.1

**Q.** With G5A C6G U7G C9A A29G A30G as the variant, how does the “exon inclusion enrichment index” value read?
**A.** 0.00214

**Q.** For C6A U7A C9A U10A A45G G46U, which “exon inclusion enrichment index” value is on record?
**A.** 0.543

**Q.** With U4C G5U C6A U7C C9A U10C as the variant, how does the “exon inclusion enrichment index” value read?
**A.** 4.16

**Q.** For G12U G13A, which “exon inclusion enrichment index” value is on record?
**A.** 0.608

**Q.** Which “exon inclusion enrichment index” value does the source give for G5U U7C G8A U10A here?
**A.** 0.168

**Q.** With G5A U7C G8A U10C A23G C24U as the variant, how does the “exon inclusion enrichment index” value read?
**A.** 0.823

**Q.** For G5C C6A U7C G8A U10A C24G A25U, which “exon inclusion enrichment index” value is on record?
**A.** 0.184

**Q.** With C6A U7C C9A U10C A20C G21C as the variant, how does the “exon inclusion enrichment index” value read?
**A.** 2.31

**Q.** With G5C C6A U7C G8A U10A G12A G13A as the variant, how does the “exon inclusion enrichment index” value read?
**A.** 0.114

**Q.** With G5C C6A U7C G8A U10A A25U G26C as the variant, how does the “exon inclusion enrichment index” value read?
**A.** 0.181

**Q.** For C6A U7A C9A U10A U17C C18U, which “exon inclusion enrichment index” value is on record?
**A.** 0.491

**Q.** Which “exon inclusion enrichment index” value does the source give for G5C C6A U7C G8A U10A C19U A20U here?
**A.** 0.0111

**Q.** Which “exon inclusion enrichment index” value does the source give for G5C C6A U7C G8A U10A U32A here?
**A.** 0.0862

**Q.** For C6A U7C C9A U10C G43U, which “exon inclusion enrichment index” value is on record?
**A.** 2.81

**Q.** For G5A C6U U7A G8U C9A C19G A20G, which “exon inclusion enrichment index” value is on record?
**A.** 0.0128

**Q.** For G5C C6A U7C G8A U10A A29C A30C, which “exon inclusion enrichment index” value is on record?
**A.** 0.217

**Q.** With G5A C6U U7A G8U C9A A30G as the variant, how does the “exon inclusion enrichment index” value read?
**A.** 0.0451

**Q.** For G5A C6U U7A G8U C9A A30U, which “exon inclusion enrichment index” value is on record?
**A.** 0.0249

**Q.** With G5U C6U U7A C9A U10A as the variant, how does the “exon inclusion enrichment index” value read?
**A.** 0.0191

**Q.** Which “exon inclusion enrichment index” value does the source give for G5C C6U G8C C9U U10C G15C C16U here?
**A.** 1.9

**Q.** With G5C C6A U7C G8A U10A G43U C44U as the variant, how does the “exon inclusion enrichment index” value read?
**A.** 0.0172

**Q.** Which “exon inclusion enrichment index” value does the source give for C6A U7C C9A U10C G21C here?
**A.** 3.66

**Q.** For G2C U3C G5A U7C G8A U10C, which “exon inclusion enrichment index” value is on record?
**A.** 2.27

**Q.** Which “exon inclusion enrichment index” value does the source give for G5C C6A U7C G8A U10A A37C G38A here?
**A.** 0.149

**Q.** For G5C C6G U7C U10C G13U A14C, which “exon inclusion enrichment index” value is on record?
**A.** 1.67

**Q.** Which “exon inclusion enrichment index” value does the source give for G5A U7C G8A U10C G43U C44A here?
**A.** 0.058

**Q.** Which “exon inclusion enrichment index” value does the source give for G5A U7C G8A U10C C36U A37U here?
**A.** 1.38

**Q.** With G5A U7C G8A U10C A47U as the variant, how does the “exon inclusion enrichment index” value read?
**A.** 2

**Q.** Which “exon inclusion enrichment index” value does the source give for G2C U3C G5C C6A U7C G8A U10A here?
**A.** 0.119

**Q.** Which “exon inclusion enrichment index” value does the source give for G5C C6U G8C C9U U10C A40G G41U here?
**A.** 1.75

**Q.** With G5C C6U G8C C9U U10C C16A U17G as the variant, how does the “exon inclusion enrichment index” value read?
**A.** 1.15

**Q.** With G13U A14C as the variant, how does the “exon inclusion enrichment index” value read?
**A.** 0.0646

**Q.** For G5U G8U C9U U17G C18U, which “exon inclusion enrichment index” value is on record?
**A.** 0.0929

**Q.** Which “exon inclusion enrichment index” value does the source give for G5A C6G U7G C9A A14C G15C here?
**A.** 0.000633

**Q.** For C6A U7C C9A U10C A25G, which “exon inclusion enrichment index” value is on record?
**A.** 4.53

**Q.** With C6A U7C C9A U10C A25U as the variant, how does the “exon inclusion enrichment index” value read?
**A.** 3.47

**Q.** With G5A U7C G8A U10C A47G G48U as the variant, how does the “exon inclusion enrichment index” value read?
**A.** 0.325

**Q.** For G5C C6G U7C U10C C19A A20C, which “exon inclusion enrichment index” value is on record?
**A.** 2.85

**Q.** For G5A U7C G8A U10C G34C A35U, which “exon inclusion enrichment index” value is on record?
**A.** 0.506

**Q.** For U32C G33U, which “exon inclusion enrichment index” value is on record?
**A.** 0.0526

**Q.** Which “exon inclusion enrichment index” value does the source give for U32C G33C here?
**A.** 0.303

**Q.** Which “exon inclusion enrichment index” value does the source give for G5A C6U U7A G8U C9A G43C C44U here?
**A.** 0.033

**Q.** Which “exon inclusion enrichment index” value does the source give for G5A C6U U7A G8U C9A G43C C44G here?
**A.** 1.01

**Q.** With G5A U7C G8A U10C G48U as the variant, how does the “exon inclusion enrichment index” value read?
**A.** 2.83

**Q.** For G5A U7C G8A U10C G28C A29U, which “exon inclusion enrichment index” value is on record?
**A.** 1.13

**Q.** For G5C C6U G8C C9U U10C A29G, which “exon inclusion enrichment index” value is on record?
**A.** 2.54

**Q.** With G5A C6G U7G C9A G48C as the variant, how does the “exon inclusion enrichment index” value read?
**A.** 0.00243

**Q.** With G5A C6G U7G C9A G48A as the variant, how does the “exon inclusion enrichment index” value read?
**A.** 0.000556

**Q.** For C6A U7C C9A U10C G26U U27C, which “exon inclusion enrichment index” value is on record?
**A.** 4

**Q.** Which “exon inclusion enrichment index” value does the source give for C6G U7G here?
**A.** 0.0143

**Q.** Which “exon inclusion enrichment index” value does the source give for G5C C6A U7C G8A U10A G41U G42C here?
**A.** 0.369

**Q.** With G5C C6G U7C U10C C24U A25U as the variant, how does the “exon inclusion enrichment index” value read?
**A.** 3.01

**Q.** For C18U, which “exon inclusion enrichment index” value is on record?
**A.** 1.27

**Q.** For C6A U7C C9A U10C A40U, which “exon inclusion enrichment index” value is on record?
**A.** 2.61

**Q.** With G5A U7C G8U C9A as the variant, how does the “exon inclusion enrichment index” value read?
**A.** 0.658

**Q.** For G5A C6U U7A G8U C9A C22U A23U, which “exon inclusion enrichment index” value is on record?
**A.** 0.0179

**Q.** Which “exon inclusion enrichment index” value does the source give for G5A C6U U7A G8U C9A C22U A23C here?
**A.** 0.0341

**Q.** For G5A C6U U7A G8U C9A A29G, which “exon inclusion enrichment index” value is on record?
**A.** 0.164

**Q.** With G5C C6A U7A U10C as the variant, how does the “exon inclusion enrichment index” value read?
**A.** 3.35

**Q.** Which “exon inclusion enrichment index” value does the source give for G5U G8U C9U A40C G41A here?
**A.** 0.0439

**Q.** Which “exon inclusion enrichment index” value does the source give for G5U G8U C9U A23C C24U here?
**A.** 0.0326

**Q.** With A35G as the variant, how does the “exon inclusion enrichment index” value read?
**A.** 0.0494

**Q.** With G5U G8U C9U U27G G28A as the variant, how does the “exon inclusion enrichment index” value read?
**A.** 0.148

**Q.** For G26C, which “exon inclusion enrichment index” value is on record?
**A.** 0.156

**Q.** With C6A U7C C9A U10C A39C A40C as the variant, how does the “exon inclusion enrichment index” value read?
**A.** 3.31

**Q.** For G5C C6G U7C U10C A40C G41C, which “exon inclusion enrichment index” value is on record?
**A.** 3.53

**Q.** With G5C C6A U7C G8A U10A A20G G21A as the variant, how does the “exon inclusion enrichment index” value read?
**A.** 0.186

**Q.** Which “exon inclusion enrichment index” value does the source give for G5C C6A U7C G8A U10A A20G G21U here?
**A.** 0.177

**Q.** With G5C C6G U7C U10C G28C A29G as the variant, how does the “exon inclusion enrichment index” value read?
**A.** 4.75

**Q.** With G5C C6U G8C C9U U10C A14C G15C as the variant, how does the “exon inclusion enrichment index” value read?
**A.** 0.406

**Q.** With G5C C6G U7C U10C G26C U27C as the variant, how does the “exon inclusion enrichment index” value read?
**A.** 4.24

**Q.** Which “exon inclusion enrichment index” value does the source give for G5U G8U C9U G13C A14G here?
**A.** 0.2

**Q.** With G5C C6G U7C U10C C18A as the variant, how does the “exon inclusion enrichment index” value read?
**A.** 3.25

**Q.** Which “exon inclusion enrichment index” value does the source give for G5U G8U C9U A25G here?
**A.** 0.618

**Q.** Which “exon inclusion enrichment index” value does the source give for G5C C6U G8C C9U U10C A31C here?
**A.** 2.29
